From patent US20150050278A1 (US Dept. of Health and Human Services, published 2015)

What was measured:
[1] = target: T1, human neonatal Fc receptor (FcRn), soluble (human, UniProt P55899 24-297; P61769 21-119, limits assumed); assay: SPR (BIAcore), human FcRn immobilised, pH 6.0; concentrations not given
T1 construct: also called human FcRn; human single-chain soluble FcRn

[2] = target: T1, human neonatal Fc receptor (FcRn), …; assay: SPR (BIAcore), human FcRn immobilised, pH 6.0; SPR (BIAcore), FcRn on the chip, pH 6.0
Description: The interaction of monomeric Fc with immobilized FcRn was monitored by SPR detection using a BIAcore X100 instrument (GE Healthcare). Purified human FcRn was diluted in 10 mM Na-acetate buffer, pH 5.0, and immobilized on a CM5 biosensor chip using amine coupling kit. The running buffer was PBS with 0.005% Tween 20 for testing binding at pH 7.4, or PBS pH 6.0 with 0.005% Tween 20 for binding at pH 6.0. […] After 10 min of dissociation, the chip was regenerated with pH 8.0 buffer (100 mM Tris, pH 8.0, 50 mM NaCl). Another test with a protein concentration of 500 nM was repeated to monitor the regeneration efficiency.
It was determined whether mCH3 could bind FcRn in a pH-dependent manner. Surface plasmon resonance (SPR) binding was performed using a BIAcore instrument with human FcRn immobilized on the chip, as described previously. The measurements were carried out under pH 6.0 or pH 7.4, and the chips were regenerated after binding by injection of a pH 8.0 buffer.

[3] = target: T1, human neonatal Fc receptor (FcRn), …; assay: SPR, human FcRn immobilised, pH 6.0; pH 6.0
[4] = target: T1, human neonatal Fc receptor (FcRn), …; assay: ELISA on coated human FcRn at pH 6.0, OD405
Description: Antigens were coating on ELISA plate wells at 50 ng per well in PBS overnight at 4° C., blocked with protein-free blocking buffer for 1 h at 37° C. Threefold serially diluted protein was added and incubated at 37° C. for 2 h. The plates were washed with PBST, and HRP-conjugated anti-Fc antibody in PBS was incubated with wells for 1 h at 37° C. After extensive washes with PBST, the binding was detected with the addition of ABTS substrate, and signals were read at 405 nm. For FcRn binding test at pH 6.0, all proteins were prepared in PBS with pH adjusted to 6.0 by HCl, and PBST with pH 6.0 was used for washing the wells.

[5] = target: T1, human neonatal Fc receptor (FcRn), …; assay: SPR (BIAcore X100), human FcRn immobilised on CM5 chip, pH 6.0; SPR (BIAcore X100), FcRn on CM5 chip, pH 6.0
Description: The interaction of monomeric Fc with immobilized FcRn was monitored by SPR detection using a BIAcore X100 instrument (GE Healthcare). Purified human FcRn was diluted in 10 mM Na-acetate buffer, pH 5.0, and immobilized on a CM5 biosensor chip using amine coupling kit. The running buffer was PBS with 0.005% Tween 20 for testing binding at pH 7.4, or PBS pH 6.0 with 0.005% Tween 20 for binding at pH 6.0. […] After 10 min of dissociation, the chip was regenerated with pH 8.0 buffer (100 mM Tris, pH 8.0, 50 mM NaCl).
Human FcRn was immobilized on a CM5 bio sensor chip followed by analysis of the interaction using BIAcore X100. The binding was performed under pH 6.0 and pH 7.4, respectively, and the chip was regenerated with pH 8.0 buffer.

T1 sequence (P55899 24-297 limits assumed, chain 1 of 2): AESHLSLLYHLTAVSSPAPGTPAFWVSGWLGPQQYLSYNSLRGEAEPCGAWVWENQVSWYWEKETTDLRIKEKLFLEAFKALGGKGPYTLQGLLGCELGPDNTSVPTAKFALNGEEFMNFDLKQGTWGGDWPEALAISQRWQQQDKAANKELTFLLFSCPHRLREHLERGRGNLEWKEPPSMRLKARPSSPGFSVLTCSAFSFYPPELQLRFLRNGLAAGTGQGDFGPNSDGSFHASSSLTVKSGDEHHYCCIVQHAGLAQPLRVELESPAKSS
T1 sequence (P61769 21-119 limits assumed, chain 2 of 2): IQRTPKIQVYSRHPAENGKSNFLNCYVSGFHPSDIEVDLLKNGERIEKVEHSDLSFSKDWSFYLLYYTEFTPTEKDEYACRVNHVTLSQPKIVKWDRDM

B1: wild-type CH3 domain (other)
chain: PREPQVYTLPPSRDELTKNQVSLTCLVKGFYPSDIAVEWESNGQPENNYKTTPPVLDSDGSFFLYSKLTVDKSRWQQGNVFSCSVMHEALHNHYTQKSLSLSPGK
notes: also called isolated CH3; Fc CH3 domain
[1]
  binding result: no binding

B2: monomeric CH3 domain (mCH3) (designed binder)
chain: PREPQVYTSPPSRDELTKNQVSLRCHVKGFYPSDIAVEWESNGQPENNYKTTKPVLDSDGSFFLYSKLTVDKSRWQQGNVFSCSVMHEALHNHYTQKSLSLSPGK
[2]
  Kd: 940 nM

B3: mCH3 343C/431C mutant (mCH3cc) (designed binder)
chain: CREPQVYTSPPSRDELTKNQVSLRCHVKGFYPSDIAVEWESNGQPENNYKTTKPVLDSDGSFFLYSKLTVDKSRWQQGNVFSCSVMHECLHNHYTQKSLSLSPGK
modifications: additional disulfide bond between Cys343 and Cys431
notes: also called engineered mCH3
[3]
  Kd: 1080 nM

B4: mFc.1 (designed binder)
chain: APELLGGPSVFLFPPKPKDTLMISRTPEVTCVVVDVSHEDPEVKFNWYVDGVEVHNAKTKPREEQYNSTYRVVSVLTVLHQDWLNGKEYKCKVSNKALPAPIEKTISKAKGQPREPQVYTYPPSRDELTKNQVSLYCAVKGFYPSDIAVEWESNGQPENNYKTTRPVLDSDGSFRLMSALTVDKSRWQQGNVFSCSVMHEALHNHYTQKSLSLSPGK
notes: also called monomeric Fc mFc.1
[4]
  EC50 (read off the curve): ~100 nM
[5]
  Kd: 204 nM

B5: mFc.67 (designed binder)
chain: APELLGGPSVFLFPPKPKDTLMISRTPEVTCVVVDVSHEDPEVKFNWYVDGVEVHNAKTKPREEQYNSTYRVVSVLTVLHQDWLNGKEYKCKVSNKALPAPIEKTISKAKGQPREPQVYTKPPSRDELTKNQVSLSCLVKGFYPSDIAVEWESNGQPENNYKTTVPVLDSDGSFRLASYLTVDKSRWQQGNVFSCSVMHEALHNHYTQKSLSLSPGK
notes: also called monomeric Fc mFc.67; mFc.67 monomer
[5]
  Kd: 111 nM

B6: mFc.23 (designed binder)
chain: APELLGGPSVFLFPPKPKDTLMISRTPEVTCVVVDVSHEDPEVKFNWYVDGVEVHNAKTKPREEQYNSTYRVVSVLTVLHQDWLNGKEYKCKVSNKALPAPIEKTISKAKGQPREPQVYTSPPSRDELTKNQVSLRCHVKGFYPSDIAVEWESNGQPENNYKTTKPVLDSDGSFELKSALTVDKSRWQQGNVFSCSVMHEALHNHYTQKSLSLSPGK
notes: also called monomeric Fc mFc.23
[4]
  EC50 (read off the curve): ~60 nM
[5]
  Kd: 59 nM
